As usually defined, the Kd is the free concentration of one partner at which half of the binding sites on the other are occupied at equilibrium, for simple one-to-one binding. Low values mean a tighter complex, high ones a looser complex. A word on the koff: it is the rate constant with which the complex falls apart. Low readings indicate a long-lived complex, high ones a short-lived complex. As usually defined, the kon is the second-order rate constant of association. A high value points to fast association.

One test concerns the target T1, human RXFP1 receptor (human, UniProt Q9HBX9 1-757).
T1 sequence (looked up): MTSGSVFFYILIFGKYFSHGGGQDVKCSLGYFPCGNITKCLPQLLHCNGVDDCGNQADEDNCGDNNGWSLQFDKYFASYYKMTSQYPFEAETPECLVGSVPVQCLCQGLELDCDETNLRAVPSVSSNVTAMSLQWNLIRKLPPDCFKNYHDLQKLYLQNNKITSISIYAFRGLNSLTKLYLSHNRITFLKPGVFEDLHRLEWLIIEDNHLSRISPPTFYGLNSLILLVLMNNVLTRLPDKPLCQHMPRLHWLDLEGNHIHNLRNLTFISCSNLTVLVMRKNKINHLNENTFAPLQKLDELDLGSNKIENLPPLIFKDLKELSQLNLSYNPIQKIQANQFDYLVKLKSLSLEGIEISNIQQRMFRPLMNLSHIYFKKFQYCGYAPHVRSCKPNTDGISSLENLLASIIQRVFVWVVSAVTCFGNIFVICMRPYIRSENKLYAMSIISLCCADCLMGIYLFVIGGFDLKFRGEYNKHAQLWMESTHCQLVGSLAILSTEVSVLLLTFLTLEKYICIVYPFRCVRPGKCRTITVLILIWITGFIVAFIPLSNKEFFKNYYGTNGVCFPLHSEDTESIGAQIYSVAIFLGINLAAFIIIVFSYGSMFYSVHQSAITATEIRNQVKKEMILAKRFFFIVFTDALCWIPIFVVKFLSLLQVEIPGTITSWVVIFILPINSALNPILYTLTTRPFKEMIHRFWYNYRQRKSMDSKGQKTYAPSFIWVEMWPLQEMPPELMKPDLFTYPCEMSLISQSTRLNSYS
In words: cell-based or functional assay.

Another test has as its target dog RXFP1 receptor (dog). The experiment in a line: cell-based or functional assay.
In the next test the target is human RXFP2 receptor (human, UniProt Q8WXD0 1-754). In words: cell-based or functional assay.
Test [1] has as its target human serum albumin (HSA) (human). In words: SPR Biacore T200, albumin amine-coupled, fusion protein as analyte. The procedure:
(§1) Coupling of serum albumins from different species to an S series CM5 sensor chip (GE, Cat. 29-1049-88) was performed using an amino coupling kit (GE, Cat No. BR-1000-50). The albumin from each species was diluted to 2 μg/mL. After the CM5 chip was activated with EDC/NHS, the diluted albumin was flowed over the chip to reach a surface response value of about 200 (180 to 230) RU, and then the chip was blocked with ethanolamine. The blank control channel also needed to be activated with EDC/NHS and blocked with ethanolamine. […] The samples of 0051 and 0054 at different concentrations were separately flowed through the albumin-coupled and blank channels for 3 min at a flow rate of 50 μL/min, with a dissociation time of 4 min. After the end of each cycle, the chip was regenerated using 10 mM glycine-hydrochloric acid (pH 1.5) (GE, Cat. #BR-1003-54). The reaction signals were detected in real-time using Biacore T200 (GE) to obtain the association and dissociation curves, and the data obtained were fitted with a Langmuir 1:1 binding model using the BIAevaluation version 4.1 software at appropriate concentration points to obtain the affinity values.
On the technique in general: SPR reads the build-up and loss of mass on a sensor chip optically.

Test [2] deals with mouse serum albumin (mSA) (mouse). The description is as above. The procedure:
as §1

For test [3], the target named is T2, rat serum albumin (rat).
T2 chain: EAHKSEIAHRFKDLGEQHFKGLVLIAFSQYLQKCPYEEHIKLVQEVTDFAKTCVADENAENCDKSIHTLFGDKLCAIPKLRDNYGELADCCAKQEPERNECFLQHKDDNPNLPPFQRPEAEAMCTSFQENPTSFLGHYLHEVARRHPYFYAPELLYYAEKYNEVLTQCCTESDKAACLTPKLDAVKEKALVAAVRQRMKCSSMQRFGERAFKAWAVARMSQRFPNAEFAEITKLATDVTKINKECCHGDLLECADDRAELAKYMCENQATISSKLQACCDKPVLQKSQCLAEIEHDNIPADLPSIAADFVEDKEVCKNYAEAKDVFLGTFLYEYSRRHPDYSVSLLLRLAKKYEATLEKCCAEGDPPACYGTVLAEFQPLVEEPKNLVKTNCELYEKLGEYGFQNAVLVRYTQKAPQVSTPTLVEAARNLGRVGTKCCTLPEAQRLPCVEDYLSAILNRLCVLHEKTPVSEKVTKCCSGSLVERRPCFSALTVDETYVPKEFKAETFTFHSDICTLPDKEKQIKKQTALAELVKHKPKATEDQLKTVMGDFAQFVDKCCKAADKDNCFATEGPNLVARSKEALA
The description is as above. The protocol: as §1

Test [4] concerns the target human serum albumin (HSA) (human). In words: SPR Biacore T200, fusion protein captured by anti-VHH antibody, albumin as analyte. The protocol: (§2) Coupling of an anti-VHH antibody (MonoRab™ Rabbit Anti-Camelid VHH Cocktail, Genescript, Cat No. A02014) to an S series CM5 sensor chip (GE, Cat No. 29-1049-88) was performed using an amino coupling kit (GE, Cat No. BR-1000-50). The antibody was diluted to 10 μg/mL with 10 mM sodium acetate (pH 4.5) (GE, Cat No. BR-1003-50). After the CM5 chip was activated with EDC/NHS, the diluted anti-VHH antibody was flowed over the chip to reach a surface response value of about 5000 RU, and then the chip was blocked with ethanolamine for later use.
(§3) The albumin from each species was serially diluted in a gradient with 1XHBS-EP (10 mM HEPES, pH 7.4, 150 mM NaCl, 3 mM EDTA, 0.05% Surfactant P20). The test fusion protein molecule was captured using the anti-VHH antibody-coupled chip, with a response value of about 30 RU. Then, different concentrations of serum albumin were flowed over the surface of the chip for 3 min at a flow rate of 50 μL/min, with a dissociation time of 1-10 min (the dissociation time varied depending on the species of albumin). After the end of each cycle, the chip was regenerated using 10 mM glycine-hydrochloric acid (pH 1.5) (GE, Cat No. BR-1003-54). The reaction signals were detected in real-time using Biacore T200 (GE) to obtain the association and dissociation curves, and the data obtained were fitted with a Langmuir 1:1 binding model using the BIAevaluation version 4.1 software at appropriate concentration points to obtain the affinity values.

The target of test [5] is T2, rat serum albumin. The test is described as above. The procedure: as §2, §3

B1: 0051 (other)
chain: EVQLLESGGGLVQPGGSLRLSCAASGFTFLTSCMGWFRQAPGKEREGVSSIYTVGGSTFYTNSVKGRFTISRDNSKNTLYLQMNSLRAEDTAVYYCAAGSPARCRLRDPTTFDYWGQGTLVTVSSGGGGQGGGGQGGGGQGGGGQGGGGQSWMEEVIKLCGRELVRAQIAICGMSTWSGGGSGGSGGGQLYSALANKCCHVGCTKRSLARFC
notes: Single-chain fusion: anti-HSA VHH, linker, relaxin-2 B chain, linker, relaxin-2 A chain; also called fusion protein 0051; molecule 0051
For the molecule B1, the “EC50 (nM), cAMP production in CHO-K1 cells with receptor overexpression” value stood at 28.3 nM with human RXFP1 receptor, 2210 nM in the test with dog RXFP1 receptor and 1250 nM with human RXFP2 receptor. For the same molecule, the Kd in test [1] is 0.0422 nM; in test [2] it was 37.9 nM; in the test with rat serum albumin [3], 1.95 nM; in test [4], 20.2 nM; with rat serum albumin [5], 156 nM. The koff was found to be 0.000207 s⁻¹ in test [1]; 0.0471 s⁻¹ in test [2]; 0.00439 s⁻¹ in the test with rat serum albumin [3]; 0.0011 s⁻¹ in test [4]; 0.00581 s⁻¹ with rat serum albumin [5]. Also, the on-rate constant (kon) is 4.91e+06 M⁻¹ s⁻¹ in test [1]; 1.24e+06 M⁻¹ s⁻¹ in test [2]; 2.25e+06 M⁻¹ s⁻¹ in the test with rat serum albumin [3]; 54500 M⁻¹ s⁻¹ in test [4]; 37200 M⁻¹ s⁻¹ with rat serum albumin [5].

The values above are taken from US20250312444A1 (BEIJING TUO JIE BIOPHARMACEUTICAL, published 2025).
